Laboratory results reported in US20100062005A1 (University of California, published 2010).
Like-named read-outs stand apart in the source and are kept apart here.

Assays:
human ROR1 protein [1] = molecular target: T1, human ROR1 protein (human, UniProt Q01973 30-937)
human ROR1 protein [2] = molecular target: T1, human ROR1 protein; assay: flow cytometry on CD5-negative, CD10+, CD19+ marrow B lymphocyte precursors (N=9 samples)
human ROR1 protein [3] = molecular target: T1, human ROR1 protein; assay: flow cytometry, Alexa-647-4A5 against IgG2b isotype control, ZAP-70-negative CLL cases (N=36)
human ROR1 protein [4] = molecular target: T1, human ROR1 protein; assay: flow cytometry, Alexa-647-4A5 against IgG2b isotype control, ZAP-70-positive CLL cases (N=33)

T1 sequence (Q01973 30-937 limits assumed): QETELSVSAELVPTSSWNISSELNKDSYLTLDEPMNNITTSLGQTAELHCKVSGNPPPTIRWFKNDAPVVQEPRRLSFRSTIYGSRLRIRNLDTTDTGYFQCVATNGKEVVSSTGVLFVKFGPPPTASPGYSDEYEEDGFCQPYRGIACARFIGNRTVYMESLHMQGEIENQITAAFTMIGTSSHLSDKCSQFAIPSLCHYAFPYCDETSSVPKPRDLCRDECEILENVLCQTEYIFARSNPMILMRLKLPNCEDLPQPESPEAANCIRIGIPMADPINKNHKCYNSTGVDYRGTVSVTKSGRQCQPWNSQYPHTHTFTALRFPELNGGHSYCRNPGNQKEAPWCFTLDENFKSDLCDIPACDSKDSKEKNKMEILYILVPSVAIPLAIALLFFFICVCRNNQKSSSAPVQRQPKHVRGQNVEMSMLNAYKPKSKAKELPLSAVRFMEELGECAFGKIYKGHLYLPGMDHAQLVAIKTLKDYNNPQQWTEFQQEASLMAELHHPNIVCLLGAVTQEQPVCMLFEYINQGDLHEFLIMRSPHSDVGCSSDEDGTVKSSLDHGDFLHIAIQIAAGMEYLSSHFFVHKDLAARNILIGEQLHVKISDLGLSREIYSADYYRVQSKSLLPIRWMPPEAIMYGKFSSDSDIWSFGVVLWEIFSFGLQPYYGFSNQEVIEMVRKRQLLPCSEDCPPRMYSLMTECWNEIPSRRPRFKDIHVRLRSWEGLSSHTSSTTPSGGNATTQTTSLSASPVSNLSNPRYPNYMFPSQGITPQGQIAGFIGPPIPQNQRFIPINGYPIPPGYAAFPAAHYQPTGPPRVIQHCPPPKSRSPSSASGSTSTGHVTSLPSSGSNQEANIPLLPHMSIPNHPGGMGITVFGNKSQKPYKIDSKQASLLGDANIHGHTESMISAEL

B1: 4A5 anti-ROR1 mAb (antibody, V domains shown)
VH: EVKLVESGGGLVKPGGSLKLSCAASGFTFSSYAMSWVRQIPEKRLEWVASISRGGTTYYPDSVKGRFTISRDNVRNILYLQMSSLRSEDTAMYYCGRYDYDGYYAMDYWGQGTSVTVSS
VL: DIKMTQSPSSMYASLGERVTITCKASPDINSYLSWFQQKPGKSPKTLIYRANRLVDGVPSRFSGGGSGQDYSLTINSLEYEDMGIYYCLQYDEFPYTFGGGTKLEMK
MFI ratio (MFIR) (human ROR1 protein [1]): 10 ratio | MFI ratio (MFIR) (human ROR1 protein [2]): 6.3 ratio | average MFIR (human ROR1 protein [3]): 12.4 ratio | median MFIR (human ROR1 protein [3]): 12 ratio | average MFIR (human ROR1 protein [4]): 12 ratio | median MFIR (human ROR1 protein [4]): 12.2 ratio
